T1: CCL5_HUMAN (human, UniProt P13501 24-91)
T1 construct: Biotinylated (detected with streptavidin-Alexa647) in yeast display; AlexaFluor 647 labelled (Almac) in thermophoresis
T1 sequence: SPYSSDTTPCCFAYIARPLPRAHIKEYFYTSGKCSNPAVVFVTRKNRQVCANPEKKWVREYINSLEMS

T2: CCL25_HUMAN (human, UniProt O15444 24-150)
T2 construct: Biotinylated (detected with streptavidin-Alexa647) in yeast display; AlexaFluor 647 labelled (Almac) in thermophoresis
T2 sequence: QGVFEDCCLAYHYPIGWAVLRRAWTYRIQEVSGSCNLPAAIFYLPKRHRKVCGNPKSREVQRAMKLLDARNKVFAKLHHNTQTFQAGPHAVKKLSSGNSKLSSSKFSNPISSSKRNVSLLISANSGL

T3: CCL3_HUMAN (human, UniProt P10147 24-92)
T3 construct: Biotinylated (detected with streptavidin-Alexa647) in yeast display; AlexaFluor 647 labelled (Almac) in thermophoresis
T3 sequence: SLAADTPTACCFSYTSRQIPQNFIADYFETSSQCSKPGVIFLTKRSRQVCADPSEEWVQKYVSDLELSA

T4: CXCL8_HUMAN (human, UniProt P10145 28-99)
T4 construct: Biotinylated (detected with streptavidin-Alexa647) in yeast display; AlexaFluor 647 labelled (Almac) in thermophoresis
T4 sequence: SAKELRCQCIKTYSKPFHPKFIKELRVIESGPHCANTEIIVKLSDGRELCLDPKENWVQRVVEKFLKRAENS

T5: CCL17_HUMAN (human, UniProt Q92583 24-94)
T5 construct: Biotinylated (detected with streptavidin-Alexa647) in yeast display; AlexaFluor 647 labelled (Almac) in thermophoresis
T5 sequence: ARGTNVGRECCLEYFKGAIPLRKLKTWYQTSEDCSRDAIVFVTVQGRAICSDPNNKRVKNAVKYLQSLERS

T6: P546_AMBCA (Amblyomma cajennense, UniProt A0A023FBW7 22-118)
T6 construct: Tick evasin; also called Evasin
T6 sequence: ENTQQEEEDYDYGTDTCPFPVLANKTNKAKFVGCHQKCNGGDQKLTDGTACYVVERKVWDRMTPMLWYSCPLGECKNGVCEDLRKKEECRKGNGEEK

T7: CCL8_HUMAN (human, UniProt P80075 24-99)
T7 construct: Biotinylated (detected with streptavidin-Alexa647) in yeast display; AlexaFluor 647 labelled (Almac) in thermophoresis
T7 sequence: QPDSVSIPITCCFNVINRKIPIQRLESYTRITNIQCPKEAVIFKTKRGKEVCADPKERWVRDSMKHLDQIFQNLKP

T8: CXCL10_HUMAN (human, UniProt P02778 22-98)
T8 construct: Biotinylated (detected with streptavidin-Alexa647) in yeast display; AlexaFluor 647 labelled (Almac) in thermophoresis
T8 sequence: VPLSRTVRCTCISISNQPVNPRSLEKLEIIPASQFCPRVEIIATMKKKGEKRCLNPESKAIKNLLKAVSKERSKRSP

T9: P991_AMBCA (Amblyomma cajennense, UniProt A0A023FFD0 29-136)
T9 construct: Tick evasin; also called Evasin
T9 sequence: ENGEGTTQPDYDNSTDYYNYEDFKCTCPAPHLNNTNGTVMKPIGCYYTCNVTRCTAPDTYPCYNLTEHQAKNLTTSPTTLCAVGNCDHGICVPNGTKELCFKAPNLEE

T10: P1243_AMBAM (Amblyomma americanum, UniProt A0A0C9S461 26-123)
T10 construct: Tick evasin; also called Evasin
T10 sequence: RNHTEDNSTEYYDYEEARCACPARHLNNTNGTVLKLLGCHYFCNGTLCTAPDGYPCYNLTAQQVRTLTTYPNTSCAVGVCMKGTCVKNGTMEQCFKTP

T11: P1182_AMBMA (Amblyomma maculatum, UniProt G3MJ83 27-115)
T11 construct: Tick evasin; also called Evasin
T11 sequence: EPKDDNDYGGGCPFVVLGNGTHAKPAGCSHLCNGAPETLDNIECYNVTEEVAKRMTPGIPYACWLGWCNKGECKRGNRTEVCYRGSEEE

T12: P467_RHIPU (Rhipicephalus pulchellus, UniProt L7M8Z8 22-127)
T12 construct: Tick evasin; also called Evasin
T12 sequence: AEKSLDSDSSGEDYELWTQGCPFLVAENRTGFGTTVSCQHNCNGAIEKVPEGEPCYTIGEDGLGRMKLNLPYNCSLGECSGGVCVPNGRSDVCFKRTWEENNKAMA

B1: P943_IXORI (other)
chain: RSKQPTASQSSKNSIKAEFCDTNCTQGTNGAWSGCSEGCFCVHVGNNTKGRCMKLSSDYDYTTQ
notes: Tick evasin; also called Evasin
B2: P1005_AMBMA (other)
chain: EKDTPKNIPGCGDTGTTAAPPADNPKHFAVYTDKHGCTIKVIGTWMTKEDHSRLPVSLRRVRASSGRVMLPASCQKICNDTVKNFPEGTPCRLVTGDPIKGKNHIKDGCIRGYCSSGVCVSDKRNISCYVPPN
notes: as for B1
B3: CCL11_HUMAN (ligand)
chain: not shown
notes: Biotinylated (detected with streptavidin-Alexa647) in yeast display; AlexaFluor 647 labelled (Almac) in thermophoresis
B4: CXCL11_HUMAN (ligand)
chain: FPMFKRGRCLCIGPGVKAVKVADIEKASIMYPSNNCDKIEVIITLKENKGQRCLNPKSKQARLIIKKVERKNF
notes: as for B3
B5: CCL22_HUMAN (ligand)
chain: GPYGANMEDSVCCRDYVRYRLPLRVVKHFYWTSDSCPRPGVVLLTFRDKEICADPRVPWVKMILNKLSQ
notes: as for B3
B6: P1030_AMBPA (other)
chain: GPPSIPGNESIPGCGDAGTTTAPEDNPKHYGTLTDKKGCTLPIIGTWMTAVDHQHLQGTRGERRGPTGKVNLPASCRKNCHGRQEILRDGIPCRKVVGNPKGSKKHLKSGCLRGKCLAGQCVNDGRRISCYVPRNITDTEPTPGLLAE
notes: Tick evasin
B7: P1063_AMBTR (other)
chain: QSEVGKNVPGCGDTETLEAPPQEKPPYYEYKDEEGCTQKVLESWFQAGERSTGRGQKKRGHGRRPSRVLRTVDCRKNCTVGITALPDGHLCLVPRGDPFTRGGAIKYGCYLGDCASGHCQHRYETVSCRLPAPDTTAKPYYVTPEK
notes: as for B1
B8: P1283_IXORI (other)
chain: KEPEDTTLPPGALVDSPDSDNCSSPHLPYFDETTNMWMGFLAVNCTKKCPVGKHVTVVDGNKCIGTWSFLDELTITVLVGSCKDGFCETDGSSECRNITLAEEDSQEEEGAAAEEEDEEDEEDEEEEEAEEEREDDHDDA
notes: as for B1
B9: CCL19_HUMAN (ligand)
chain: GTNDAEDCCLSVTQKPIPGYIVRNFHYLLIKDGCRVPAVVFTTLRGRQLCAPPDQPWVERIIQRLQRTSAKMKRRSS
notes: as for B3
B10: P698_RHISA (other)
chain: NEDDSSDYYDASPMNCSSMSVNSTMGWLSMNCTMSCNGTTFPLSNSTHCFHSYTNLTVQSRMETMTYNCSVGTCSNGTCVENGTTTTCW
notes: as for B1
B11: CCL18_HUMAN (ligand)
chain: AQVGTNKELCCLVYTSWQIPQKFIVDYSETSPQCPKPGVILLTKRGRQICADPNKKWVQKYISDLKLNA
notes: as for B3
B12: P1219_IXORI (other)
chain: ASLAKETEDTTLPARALVDSPDSDNCSSPQLPYFDELTYMPLGFLAVNCTKTCPVGKNGTVVNGNKCIVTWSILDVSTITVLVGSCKNGYCISDGSSECRNITLAGEDSQEEEEEAEEDEEEDDGDEEEDEEEDEEENDDD
notes: as for B1
B13: CCL1_HUMAN (ligand)
chain: KSMQVPFSRCCFSFAEQEIPLRAILCYRNTSSICSNEGLIFKLKRGKEACALDTVGWVQRHRKMLRHCPSKRK
notes: as for B3
B14: P1146_IXORI (other)
chain: GPDTKGDEESDENELFTVEYCGTNCTQLENGSWTPCSGNNGNCRCFHESDKTVGLCLSTEYTDFSEYPDPNSSEIIAAAPLPRERLIQ
notes: as for B1
B15: P1011_AMBTR (other)
chain: EKDTPKNIPGCEDAGTTAAPPADNPKHYAVYTDKNGCTFKVIGTWMTKEDHRRLPVSLRRVRASSGRVKLPASCQKICKHSVKKFPEGTPCRLVTRDPIKGKNHIKNGCIRGYCSSGVCVSDNRSISCYVLPNNTELTSPSGSFAE
notes: as for B1
B16: P1220_IXORI (other)
chain: GSTPSAMKTEDILKVLGSTSSLENHTDSSHCRYQELLDITKNIENAGFLAINCQRSCPNGKQTMVEGYGCIFKIKHATKRGKVKVKEGSCRKGACVRGSTRPPWRLLVLLGESKEEEFL
notes: as for B1

Legend:
CCL5_HUMAN [1] = target: T1, CCL5_HUMAN; experiment: yeast surface display library FACS screen, labelled chemokine (col C: isolated in)
CCL1_HUMAN = target: B13; experiment: as above
CCL25_HUMAN [2] = target: T2, CCL25_HUMAN; experiment: as above
CCL11_HUMAN = target: B3; experiment: as above
CCL5_HUMAN [3] = target: T1, CCL5_HUMAN; experiment: yeast surface display FACS re-test, >3 fold MFI over control (col D);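 further: yeast displaying putative tick Evasins stained with biotinylated human chemokine plus streptavidin-Alexa647, flow cytometry, positive when MFI exceeds 3-fold the empty-vector or no-chemokine background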
CCL3_HUMAN = target: T3, CCL3_HUMAN; experiment: as above
CCL19_HUMAN [4] = target: B9; experiment: as above
CXCL8_HUMAN [5] = target: T4, CXCL8_HUMAN; experiment: as above
CCL17_HUMAN [6] = target: T5, CCL17_HUMAN; experiment: as above
P546_AMBCA = target: T6, P546_AMBCA; experiment: microscale thermophoresis, AlexaFluor 647 labelled chemokine
CCL17_HUMAN [7] = target: T5, CCL17_HUMAN; experiment: yeast surface display library FACS screen, labelled chemokine (col C: isolated in)
CCL8_HUMAN = target: T7, CCL8_HUMAN; experiment: yeast surface display FACS re-test, >3 fold MFI over control (col D);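 further: yeast displaying putative tick Evasins stained with biotinylated human chemokine plus streptavidin-Alexa647, flow cytometry, positive when MFI exceeds 3-fold the empty-vector or no-chemokine background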
CCL18_HUMAN = target: B11; experiment: as above
CCL20_HUMAN = target: T13, CCL20_HUMAN (human, UniProt P78556 27-96); experiment: as above
T13 construct: Biotinylated (detected with streptavidin-Alexa647) in yeast display; AlexaFluor 647 labelled (Almac) in thermophoresis

CXCL10_HUMAN = target: T8, CXCL10_HUMAN; experiment: yeast surface display library FACS screen, labelled chemokine (col C: isolated in)
P991_AMBCA = target: T9, P991_AMBCA; experiment: as above
P1243_AMBAM [8] = target: T10, P1243_AMBAM; experiment: yeast surface display FACS re-test, >3 fold MFI over control (col D);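 further: yeast displaying putative tick Evasins stained with biotinylated human chemokine plus streptavidin-Alexa647, flow cytometry, positive when MFI exceeds 3-fold the empty-vector or no-chemokine background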
P1182_AMBMA = target: T11, P1182_AMBMA; experiment: yeast surface display library FACS screen, labelled chemokine (col C: isolated in)
P1243_AMBAM [9] = target: T10, P1243_AMBAM; experiment: as above
CCL19_HUMAN [10] = target: B9; experiment: as above
P467_RHIPU = target: T12, P467_RHIPU; experiment: as above
CXCL8_HUMAN [11] = target: T4, CXCL8_HUMAN; experiment: as above
CCL25_HUMAN [12] = target: T2, CCL25_HUMAN; experiment: yeast surface display FACS re-test, >3 fold MFI over control (col D);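 further: yeast displaying putative tick Evasins stained with biotinylated human chemokine plus streptavidin-Alexa647, flow cytometry, positive when MFI exceeds 3-fold the empty-vector or no-chemokine background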

Chain of CCL11_HUMAN (P51671 24-97 limits assumed): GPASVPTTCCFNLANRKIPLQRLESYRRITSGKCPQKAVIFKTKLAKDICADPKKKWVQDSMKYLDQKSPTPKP
T13 sequence (P78556 27-96 limits assumed): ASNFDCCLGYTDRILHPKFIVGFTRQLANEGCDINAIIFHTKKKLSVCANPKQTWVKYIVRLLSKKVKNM

B1: binds (CCL5_HUMAN [1]).

B2: binds (CCL1_HUMAN); binds (CCL25_HUMAN [2]); binds (CCL11_HUMAN). B2: binds (CCL5_HUMAN [3]); binds (CCL3_HUMAN); binds (CCL19_HUMAN [4]). B2: binds (CXCL8_HUMAN [5]); binds (CCL17_HUMAN [6]).

With B3 the Kd (P546_AMBCA) was 500 nM.

B4: no binding (P546_AMBCA).

B5 was tested, and the Kd (P546_AMBCA) was 175 nM.

B6: binds (CCL11_HUMAN); binds (CCL17_HUMAN [7]); binds (CCL5_HUMAN [3]). B6: binds (CCL8_HUMAN); binds (CCL18_HUMAN); binds (CCL20_HUMAN). B6: binds (CCL3_HUMAN); binds (CXCL8_HUMAN [5]).

B7: binds (CCL5_HUMAN [1]).

B8: binds (CXCL10_HUMAN).

B9: binds (P991_AMBCA); binds (P1243_AMBAM [8]).

B10: binds (CCL8_HUMAN).

In the case of B11, the binding result (P1182_AMBMA) is reported as “binds”, the binding result (P1243_AMBAM [9]) is reported as “binds” and the Kd (P546_AMBCA) is reported as 86 nM.

B12: binds (CXCL10_HUMAN); binds (CCL19_HUMAN [10]).

In the case of B13, the binding result (P467_RHIPU) is reported as “binds” and the Kd (P546_AMBCA) is reported as 149 nM.

B14: binds (CXCL8_HUMAN [11]).

B15: binds (CCL11_HUMAN); binds (CCL5_HUMAN [3]); binds (CCL18_HUMAN). B15: binds (CCL25_HUMAN [12]); binds (CCL17_HUMAN [6]).

B16: binds (CCL25_HUMAN [2]).
